No end group written: not given here.
B1: p73TD-derived peptide β1 (peptide)
chain: DEDTYYLQVRG-NH2
B2: p73TD-derived peptide α2 (peptide)
chain: PQPLVDSYRQQQQLLQR

Target: T1, recombinant MCL1 (human, UniProt Q07820 1-350)
T1 construct: MCL1, human; Uniformly 15N-labelled for NMR; also called 15N MCL1; source: E. coli BL21 (DE3), purified (nickel chromatography, gel filtration)
Assay: fluorescence polarisation; competitive FPA: 50 nM recombinant MCL1, 10 nM F-BAK, titration of unlabeled p73 peptide or p73DBD, 1× PBS pH 7.4
Conditions: both partners purified

T1 sequence (Q07820 whole entry): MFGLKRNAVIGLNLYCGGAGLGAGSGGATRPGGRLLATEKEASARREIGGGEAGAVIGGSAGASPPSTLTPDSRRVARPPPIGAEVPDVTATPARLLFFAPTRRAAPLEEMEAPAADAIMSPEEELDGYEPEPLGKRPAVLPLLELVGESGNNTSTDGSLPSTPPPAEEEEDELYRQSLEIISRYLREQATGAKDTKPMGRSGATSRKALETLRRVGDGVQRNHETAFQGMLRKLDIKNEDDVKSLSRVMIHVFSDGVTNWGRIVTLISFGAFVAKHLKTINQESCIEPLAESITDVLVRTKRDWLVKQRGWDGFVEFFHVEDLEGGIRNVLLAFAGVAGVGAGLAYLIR

Row | Binder | IC50 [µM]
1 | B1 | > 10
2 | B2 | > 10

Source: publication PMC7641127, “MCL1 binds and negatively regulates the transcriptional function of tumor suppressor p73” (Cell Death & Disease, 2020)
